Reference: the Immune Epitope Database (IEDB)
Values belong to the sequence of their own block, whether it stands above or below them.

Legend:
HLA-C*14:02 = assay: IEDB peptide-MHC binding, purified MHC/direct/fluorescence; filed as Kd, often an IC50 or EC50 that approximates it; ≥ and ≤ were set here for values at or beyond the usual limits of such assays
HLA-A*26:01 [1] = assay: IEDB peptide-MHC binding, purified MHC/competitive/fluorescence; filed as Kd, often an IC50 or EC50 that approximates it; ≥ and ≤ were set here for values at or beyond the usual limits of such assays; conditions: source organism: Escherichia coli O139:H28 str. E24377A
HLA-A*11:01 [2] = assay: IEDB peptide-MHC binding, purified MHC/competitive/fluorescence; ≥ and ≤ were set here for values at or beyond the usual limits of such assays
HLA-A*02:01 [3] = assay: as above
HLA-A*03:01 [4] = assay: as above
HLA-A*01:01 = assay: IEDB peptide-MHC binding, purified MHC/direct/fluorescence; filed as Kd, often an IC50 or EC50 that approximates it; ≥ and ≤ were set here for values at or beyond the usual limits of such assays
HLA-B*58:01 = assay: as above
HLA-B*44:02 = assay: as above
HLA-A*26:01 [5] = assay: as above
HLA-A*69:01 = assay: as above
HLA-B*15:01 [6] = assay: as above
HLA-B*40:01 = assay: as above
HLA-A*03:01 [7] = assay: as above
HLA-A*31:01 = assay: as above
HLA-A*11:01 [8] = assay: as above
HLA-B*07:02 = assay: as above
HLA-B*27:05 = assay: as above
HLA-A*02:01 [9] = assay: as above
HLA-B*08:01 [10] = assay: as above
HLA-B*35:01 = assay: as above
HLA-A*02:03 = assay: IEDB peptide-MHC binding, purified MHC/competitive/radioactivity; filed as Kd, often an IC50 or EC50 that approximates it; ≥ and ≤ were set here for values at or beyond the usual limits of such assays
HLA-A*02:17 = assay: as above
HLA-A*02:06 = assay: as above
HLA-A*02:01 [11] = assay: as above
HLA-A*26:01 [12] = assay: as above; conditions: source organism: Dengue virus 3 Martinique/1243/1999
HLA-A*68:02 = assay: as above
HLA-B*51:01 = assay: as above; conditions: source organism: Dengue virus 3 Martinique/1243/1999
HLA-A*24:02 = assay: IEDB peptide-MHC binding, purified MHC/competitive/fluorescence; ≥ and ≤ were set here for values at or beyond the usual limits of such assays; conditions: source organism: Zaire ebolavirus
HLA-B*15:03 = assay: IEDB peptide-MHC binding, purified MHC/competitive/radioactivity; filed as Kd, often an IC50 or EC50 that approximates it; ≥ and ≤ were set here for values at or beyond the usual limits of such assays; conditions: source organism: Vaccinia virus WR
HLA-A*32:01 = assay: as above; conditions: source organism: Vaccinia virus WR
HLA-B*15:01 [13] = assay: as above; conditions: source organism: Vaccinia virus WR
HLA-A*30:01 = assay: as above; conditions: source organism: Vaccinia virus WR
HLA-B*08:01 [14] = assay: as above; conditions: source organism: Vaccinia virus WR
HLA-A*24:03 = assay: IEDB peptide-MHC binding, purified MHC/direct/fluorescence; filed as Kd, often an IC50 or EC50 that approximates it; ≥ and ≤ were set here for values at or beyond the usual limits of such assays; conditions: source organism: Pseudomonas aeruginosa
HLA-A*02:02 = assay: IEDB peptide-MHC binding, purified MHC/competitive/radioactivity; filed as Kd, often an IC50 or EC50 that approximates it; ≥ and ≤ were set here for values at or beyond the usual limits of such assays; conditions: source organism: Vaccinia virus WR
HLA-A*02:12 = assay: IEDB peptide-MHC binding, purified MHC/competitive/fluorescence; filed as Kd, often an IC50 or EC50 that approximates it; ≥ and ≤ were set here for values at or beyond the usual limits of such assays; conditions: source organism: Cowpox virus
HLA-A*02:01 [15] = assay: as above; conditions: source organism: Cowpox virus
[16] = source organism: Zaire ebolavirus
[17] = source organism: Vibrio vulnificus
[18] = source organism: Dengue virus 1 Brazil/97-11/1997
[19] = source organism: Dengue virus 1 Singapore/S275/1990
[20] = source organism: Dengue virus 3 Martinique/1243/1999
[21] = source organism: Dengue virus 3 China/80-2/1980
[22] = source organism: Vaccinia virus
[23] = source organism: Dengue virus 2 Jamaica/1409/1983
[24] = source organism: Pseudomonas aeruginosa
[25] = source organism: Vaccinia virus WR
[26] = source organism: Dengue virus 2 Peru/IQT2913/1996
[27] = source organism: Dengue virus 2 Thailand/NGS-C/1944
[28] = source organism: Giardia lamblia ATCC 50803

Kd (HLA-C*14:02; source organism: Escherichia coli O139:H28 str. E24377A): 1100 nM
Kd (HLA-A*26:01 [1]): ≥ 20000 nM
Sequence: ACPDNLLRL

Sequence: ATAHGSTLA
IC50 (HLA-A*11:01 [2]; [16]): 43100 nM
IC50 (HLA-A*02:01 [3]; [16]): 54300 nM

Sequence: AVLYYHMMK
IC50 (HLA-A*03:01 [4]; [16]): 1970 nM
IC50 (HLA-A*11:01 [2]; [16]): 288 nM
IC50 (HLA-A*02:01 [3]; [16]): ≥ 311000 nM

Sequence: DFPIFNQRY
Kd (HLA-A*01:01; [17]): ≥ 20000 nM
Kd (HLA-B*58:01; [17]): ≥ 20000 nM
Kd (HLA-B*44:02; [17]): ≥ 20000 nM
Kd (HLA-A*26:01 [5]; [17]): 3830 nM
Kd (HLA-A*69:01; [17]): ≥ 20000 nM
Kd (HLA-B*15:01 [6]; [17]): ≥ 20000 nM
Kd (HLA-B*40:01; [17]): ≥ 20000 nM
Kd (HLA-A*03:01 [7]; [17]): ≥ 20000 nM
Kd (HLA-A*31:01; [17]): ≥ 20000 nM
Kd (HLA-A*11:01 [8]; [17]): ≥ 20000 nM
Kd (HLA-B*07:02; [17]): ≥ 20000 nM
Kd (HLA-B*27:05; [17]): ≥ 20000 nM
Kd (HLA-A*02:01 [9]; [17]): ≥ 20000 nM
Kd (HLA-B*08:01 [10]; [17]): ≥ 20000 nM
Kd (HLA-B*35:01; [17]): 118 nM

Sequence: FMTATPPGSV
Kd (HLA-A*02:03; [18]): 1.67 nM
Kd (HLA-A*02:17; [19]): 3100 nM
Kd (HLA-A*02:06; [18]): 671 nM
Kd (HLA-A*02:01 [11]; [19]): 72.8 nM

Sequence: FTMGVLCLAI
Kd (HLA-A*26:01 [12]): 1650 nM
Kd (HLA-A*02:03; [20]): 9.25 nM
Kd (HLA-A*02:17; [21]): 132 nM
Kd (HLA-A*68:02; [20]): 11.1 nM
Kd (HLA-B*51:01): 8620 nM
Kd (HLA-A*02:06; [20]): 5.39 nM

Sequence: GTSNRTPTV
IC50 (HLA-A*03:01 [4]; [16]): 57200 nM
IC50 (HLA-A*11:01 [2]; [16]): ≥ 128000 nM
IC50 (HLA-A*02:01 [3]; [16]): 1300 nM

Sequence: IVLEFFMMV
Kd (HLA-A*02:17; [21]): 131 nM
Kd (HLA-A*68:02; [20]): 558 nM
Kd (HLA-A*02:06; [20]): 31.7 nM

Sequence: IYIEGLMHN
IC50 (HLA-A*24:02): 2630 nM
IC50 (HLA-A*03:01 [4]; [16]): ≥ 211000 nM
IC50 (HLA-A*11:01 [2]; [16]): 36100 nM

IC50 (HLA-A*03:01 [4]; source organism: Homo sapiens): 415 nM
IC50 (HLA-A*11:01 [2]; source organism: Homo sapiens): 32 nM
Sequence: KIGDFGLATVK

Sequence: KMLMTGTLAV
Kd (HLA-A*02:03; [18]): 10 nM
Kd (HLA-A*02:17; [19]): 444 nM
Kd (HLA-A*02:06; [18]): 47.4 nM
Kd (HLA-A*02:01 [11]; [19]): 6.46 nM

Sequence: KMNAKAATL
Kd (HLA-C*14:02; source organism: Mycobacterium tuberculosis variant bovis BCG str. Pasteur 1173P2): 146 nM

Sequence: LLLQKYPPP
IC50 (HLA-A*03:01 [4]; [22]): ≥ 416000 nM
IC50 (HLA-A*02:01 [3]; [22]): 34100 nM

Sequence: LLTGGAMLFL
Kd (HLA-A*02:17; [21]): 347 nM
Kd (HLA-A*02:01 [11]; [21]): 47.4 nM

Sequence: LLVISGVFPV
Kd (HLA-A*02:03; [23]): 17 nM
Kd (HLA-A*02:17; [23]): 2.75 nM
Kd (HLA-A*02:06; [23]): 0.72 nM
Kd (HLA-A*02:01 [11]; [23]): 0.279 nM

Sequence: LMFKHLLHP
Kd (HLA-B*15:03): 25.9 nM
Kd (HLA-A*32:01): 11300 nM
Kd (HLA-B*15:01 [13]): 103 nM
Kd (HLA-A*30:01): 504 nM
Kd (HLA-B*08:01 [14]): 1.04 nM

Kd (HLA-A*01:01; [24]): ≥ 20000 nM
Kd (HLA-B*58:01; [24]): ≥ 20000 nM
Kd (HLA-A*26:01 [5]; [24]): ≥ 20000 nM
Kd (HLA-A*24:03): ≥ 20000 nM
Kd (HLA-A*69:01; [24]): ≥ 20000 nM
Kd (HLA-B*15:01 [6]; [24]): ≥ 20000 nM
Kd (HLA-B*40:01; [24]): ≥ 20000 nM
Kd (HLA-A*03:01 [7]; [24]): ≥ 20000 nM
Kd (HLA-A*31:01; [24]): ≥ 20000 nM
Kd (HLA-A*11:01 [8]; [24]): ≥ 20000 nM
Kd (HLA-B*07:02; [24]): 28.3 nM
Kd (HLA-B*27:05; [24]): ≥ 20000 nM
Kd (HLA-A*02:01 [9]; [24]): ≥ 20000 nM
Kd (HLA-B*08:01 [10]; [24]): 189 nM
Kd (HLA-B*35:01; [24]): 88 nM
Sequence: LPQTRWQAV

Sequence: LQISRVNDL
Kd (HLA-B*15:03): 34.4 nM
Kd (HLA-A*02:03; [25]): 11.5 nM
Kd (HLA-A*02:02): 89.8 nM
Kd (HLA-A*02:06; [25]): 229 nM

Sequence: LTIACRVSL
Kd (HLA-B*15:03): 599 nM
Kd (HLA-A*32:01): 95.8 nM
Kd (HLA-B*15:01 [13]): 75.8 nM
Kd (HLA-A*30:01): 475 nM
Kd (HLA-B*08:01 [14]): 731 nM

Sequence: LVISGLFPV
Kd (HLA-A*02:03; [26]): 3.62 nM
Kd (HLA-A*02:17; [27]): 2.17 nM
Kd (HLA-A*68:02; [26]): 1.23 nM
Kd (HLA-A*02:06; [26]): 0.36 nM
Kd (HLA-A*02:01 [11]; [27]): 2.93 nM

Sequence: NMNNDSYYF
Kd (HLA-A*02:12): 76.5 nM
Kd (HLA-A*02:01 [15]): 11.3 nM

Sequence: NQVCIDILR
IC50 (HLA-A*11:01 [2]; [22]): ≥ 205000 nM

Sequence: QHTRRVSVL
Kd (HLA-A*01:01; [28]): ≥ 20000 nM
Kd (HLA-B*44:02; [28]): ≥ 20000 nM
Kd (HLA-A*26:01 [5]; [28]): 5180 nM
Kd (HLA-A*69:01; [28]): ≥ 20000 nM
Kd (HLA-B*15:01 [6]; [28]): ≥ 20000 nM
Kd (HLA-A*03:01 [7]; [28]): ≥ 20000 nM
Kd (HLA-A*31:01; [28]): ≥ 10000 nM
Kd (HLA-A*11:01 [8]; [28]): ≥ 20000 nM
Kd (HLA-B*07:02; [28]): ≥ 20000 nM
Kd (HLA-A*02:01 [9]; [28]): 10100 nM
Kd (HLA-B*08:01 [10]; [28]): 534 nM
Kd (HLA-B*35:01; [28]): 1300 nM

Sequence: RMFGSKPTF
Kd (HLA-B*15:03): 0.206 nM
Kd (HLA-A*32:01): 9800 nM
Kd (HLA-B*15:01 [13]): 7510 nM
Kd (HLA-A*30:01): 6250 nM
Kd (HLA-B*08:01 [14]): 7870 nM

Sequence: SQTIELIAF
Kd (HLA-B*15:03): 0.206 nM

Sequence: VKNEVNSFK
IC50 (HLA-A*03:01 [4]; [16]): 47100 nM
IC50 (HLA-A*11:01 [2]; [16]): 39100 nM

Sequence: VLLLTIGLSL
Kd (HLA-A*02:17; [19]): 3910 nM
Kd (HLA-A*02:01 [11]; [19]): 5.24 nM

Sequence: VMSQEDNHF
Kd (HLA-B*15:03): 102 nM
Kd (HLA-B*15:01 [13]): 192 nM

Kd (HLA-A*01:01; [24]): ≥ 20000 nM
Kd (HLA-B*58:01; [24]): ≥ 20000 nM
Kd (HLA-A*26:01 [5]; [24]): ≥ 20000 nM
Kd (HLA-A*24:03): ≥ 20000 nM
Kd (HLA-B*15:01 [6]; [24]): 144 nM
Kd (HLA-B*40:01; [24]): ≥ 20000 nM
Kd (HLA-A*03:01 [7]; [24]): ≥ 20000 nM
Kd (HLA-A*31:01; [24]): ≥ 20000 nM
Kd (HLA-A*11:01 [8]; [24]): ≥ 20000 nM
Kd (HLA-B*07:02; [24]): 251 nM
Kd (HLA-B*27:05; [24]): ≥ 20000 nM
Kd (HLA-A*02:01 [9]; [24]): ≥ 20000 nM
Kd (HLA-B*08:01 [10]; [24]): ≥ 20000 nM
Kd (HLA-B*35:01; [24]): 6120 nM
Sequence: VVAVGGLAI

Sequence: YMSSEPIIF
Kd (HLA-B*15:03): 0.304 nM
